Data set [1] in a line: Pharmacokinetic study in the dog (blood, HPLC fluorescence). The conditions noted are these: dog blood; non-toxic doses (DPV1047-BCH-SN38 ≦20 mg/kg, DPV1047-MIC-SN38 ≦50 mg/kg). The class given is in vivo. Here is the method: Peripheral blood samples were taken at different times following infusion for pharmacokinetic analysis.
Blood samples (2.5 mL) were collected in 5 mL in trisodium citrate tubes (Sarstedt S-Monovette® 9NC) containing 2.5 mL of 5% TFA (v/v) and vortexed for 5 seconds before storage at −80° C. (for less than two weeks).
Samples were then analyzed after a TFA and acetonitrile extraction by an HPLC fluorescence method, described below. […] Whole blood samples were acidified with TFA to protect the ester link of the conjugate against hydrolysis and allow protein precipitation to improve conjugate and SN38 recovery.
Five hundred microliters of each sample were then placed in 1.5 mL micro-centrifuge tubes to and centrifuged at 16000×g 3 min at +4° C. […] Methanol (100 μL) was then immediately added and the mixture stirred vigorously (vortex) for 5 seconds. Samples were then centrifuged at 16000×g, 3 min at room temperature.
One hundred and fifty microliters of the supernatant was recovered for HPLC analysis.
DPV1047-BCH-SN38 and its metabolite SN38 were separated by high-performance liquid chromatography (HPLC Agilent 1100 with a fluorescence detector) using the following method: […]

Data set [2] in a line: Toxicity study in the beagle dog following intravenous infusion. How it is done: Adult female and male beagle dogs were individually housed with free access to tap water. A pellet diet was distributed daily.
Dogs (1 dog for each drug and dose) were infused intravenously through the cephalic or saphenous vein. These intravenous infusions were made using a single-use catheter (Intraflon®) and a plastic syringe connected to a syringe pump. During the injection, the animals were restrained in a hammock.
Conjugates were dissolved in water for injection (10% of final volume) and diluted with 0.9% NaCl to their final concentration. The volume administered to each animal was adjusted according to body weight.
Clinical signs, hematological and intestinal toxicities were monitored during a period of 15 days after infusion. Each animal was checked at least twice a day for mortality or signs of morbidity.
The body weight of each animal was recorded on the day −1, 4, 10 and 13.
Peripheral blood samples were taken into EDTA tubes for the determination of following parameters on days −1, 5, 11 and 14: erythrocytes, hemoglobin, mean cell volume, packed cell volume, mean cell hemoglobin concentration, mean cell hemoglobin, thrombocytes, leucocytes, differential white cell count with cell morphology.

Data set [3] in a line: Stability of conjugates in citrated plasma at 37° C. (half life time, HPLC fluorescence). Format: in vitro ADME. The conditions noted are these: DPV1047-linker-SN38, 2.55 μM. How it is done:
(§1) The stability of the conjugates was tested in citrated plasma (10% (v/v) sodium citrate buffer, 0.106M) from different species (see Table 1 below). The conjugates at 2.55 μM were incubated at 37° C. in plasma. Samples were analysed using the HPLC fluorescence method described below (see chromatographic equipment and conditions) following TFA/acetonitrile extraction and the amount of free camptothecin, analogs or derivatives thereof (e.g. SN38) released by the conjugates was measured.
(§2) Chromatographic equipment and conditions: 150 μL of each sample were placed in 1.5 mL micro-centrifuge tubes. 450 μL of 5% (v/v) TFA in H2O was added to each tube and the mixture was vortexed for 5 seconds. Samples were then centrifuged at 16000 g, 3 minutes at +4° C. 100 μL of supernatant were placed in 1.5 mL micro-centrifuge tubes. Methanol (100 μL) was then immediately added and vortexed for 5 seconds. Samples were then centrifuged at 16000 g, 3 minutes at room temperature. 150 μL of supernatant were recovered for HPLC analysis. Conjugates, metabolites and camptothecin derivative (i.e. SN38) were separated by high-performance liquid chromatography (HPLC; Agilent 1100 series equipped with a fluorescence detector) using a 4.6×100 mm ([…] particle size) Luna C18(2) column (Phenomenex ref. 00D-4251-E0, Le Pecq, France). The aqueous component of the mobile phase (A) was 0.1% (v/v) TFA in water. The organic modifier (B) was acetonitrile containing 0.1% (v/v) TFA. For the conjugate and its metabolites an elution gradient increasing linearly the proportion of B from 15 to 37% in 2 min, from 37 to 47% in 6 min, followed by 2 min at 90% was applied with a constant flow rate of 1.2 mL/min. The proportion of B was then returned to the initial condition for 3.0 min.
(§3) The half life time of conjugate corresponds to the time necessary to have 50% by mole of free camptothecin, analogs or derivatives thereof released by the conjugates of the invention. In human plasma, the half life time of conjugate DPV1047-linker #1-SN38 (less than 5 mins) was shorter than that of conjugate DPV1047-linker #2-SN38 (6-7 mins), which, in turn, was shorter than that of conjugate DPV1047-linker #3-SN38 (12 mins).

Test in data set [4]: as above
Format: in vitro ADME, human. The conditions noted are these: human, plasma. How it is done:
as §1, §2, §3
(§4) As in Example II, the stability of these conjugates was tested in either human or dog plasma. Following incubation at 37° C., samples were analyzed after a TFA acetonitrile extraction by the HPLC fluorescence method described in Example II. The in vitro cytotoxicity (IC50) of these compounds was also evaluated.

Test in data set [5]: as above
Format: in vitro ADME. The conditions noted are these: dog. Here is the method:
as §1, §2, §3, §4

Data set [6] is described as follows: In vitro human serum stability study. Format: in vitro ADME. An excerpt: Peptidic drug delivery systems have also been described in PCT patent application published under No WO 00/01417 filed by […] aiming to facilitate the delivery of different drugs, such as the 10-Hydroxycamptothecin. This patent application describes the use of homeobox peptide derived from the Drosophila antennapedia homoprotein (preferably a cell-penetrating peptide (CPP) named penetratin) for conjugation to a number of cytotoxic drugs, thus enhancing their delivery and/or therapeutic effect. […] Consequently the applicant has performed in vitro human serum stability studies using the conjugate described in example 29 of this patent application No WO 00/01417.

Data set [7] relates to HCT 116 human epithelial colon carcinoma cells. Kind of data set: cells. Format: cell-based. How it is done: (§5) Cytotoxic evaluation was performed by seeded cells for 24 h prior to the addition of the therapeutic compound. Cells were incubated for 48 h (37° C.) with different dilutions of the therapeutic compound. Cell viability was then assessed using the WST-1 assay (Roche). The results are expressed as mean cytotoxic concentrations (IC50 value or molar concentration that inhibits 50% of cell viability) that were estimated from sigmoid regression, using Graph Pad Prism 3.02 software.
HCT 116 (ATCC #: CCL-247): human epithelial colon carcinoma cells. Cells were cultured in Mc Coy's 5a medium+1.5 mM L-glutamine and 10% fetal bovine serum. Cells were plated at a density of 8000 cells/well in 96-well plates.

Data set [8] concerns NCI-H460 human epithelial lung carcinoma cells. Kind of data set: In vitro cytotoxicity (WST-1 cell viability). The class given is cell-based. Here is the method: as §5
NCI-H460 (ATCC#: HTB-177): human epithelial lung carcinoma cells. Cells were cultured in RPMI 1640+glutamax and 10% of fetal bovine serum. Cells were plated at a density of 10,000 cells/well in 96-well plates.

The conditions of data set [9]: background statement; cited from earlier work.
The mark [10] stands for this setting: Table 14, 10-Hydroxycamptothecin conjugates, read-out: Human Plasma Half life time.
Setting [11] is: Table 14, 10-Hydroxycamptothecin conjugates, read-out: Dog Plasma Half life time.

Where two headings read alike, the source gives them in different places. Where a SMILES comes first, the peptide text is derived from it. The star is where a group is joined. X4 = CC[C@@]1(O)C(=O)OCc2c1cc1n(c2=O)Cc2cc3cc(OC(=O)[C@H]4CC[C@H](CNC(=O)C5CCC(CN6C(=O)CC(*)C6=O)CC5)CC4)ccc3nc2-1; X1 = CCc1c2c(nc3ccc(OC(=O)CCCCCN4C(=O)CC(*)C4=O)cc13)-c1cc3c(c(=O)n1C2)COC(=O)[C@]3(O)CC

The half-life is how long it takes for the measured level to halve.

As for `CCc1c2c(nc3ccc(OC(=O)CCCCCN4C(=O)CC(SC[C@H](N)C(=O)N[C@H](C(=O)N[C@@H](CCCCN)C(=O)N[C@@H](CCCNC(=N)N)C(=O)NCC(=O)N[C@@H](CC(C)C)C(=O)N[C@@H](CCCCN)C(=O)N[C@@H](CC(C)C)C(=O)N[C@@H](CCCNC(=N)N)C(=O)N[C@@H](Cc5c[nH]cn5)C(=O)N[C@H](C(=O)N[C@@H](CCCNC(=N)N)C(=O)N5CCC[C@H]5C(=O)N[C@@H](CCCNC(=N)N)C(=O)N[C@H](C(=O)N[C@H](C(=O)N[C@@H](CCCNC(=N)N)C(=O)N[C@@H](CCSC)C(=O)N[C@@H](CC(=O)O)C(=O)N[C@H](C(=O)O)C(C)C)[C@@H](C)O)C(C)C)C(C)C)C(C)C)C4=O)cc13)-c1cc3c(c(=O)n1C2)COC(=O)[C@]3(O)CC` (stereo partly shown) [DPV1047-MIC-SN38] (H-C(X1)VKRGLKLRHVRPRVTRMDV-OH), the “SN38 Cmax and AUC versus dose of the conjugate” value in data set [1] is recorded as “increased linearly with the dose”. In addition, in data set [2] (beagle dog, i.v. infusion), the “MTD as mg equivalent of SN38” value is given as 6.5-9.1 mg equivalent of SN38. Further, the WBC depletion in data set [2] (dog, 70 mg/kg) is given as 94%. In addition, in [2] (dog, 70 mg/kg), the “signs of toxicity” value is “gastro-intestinal toxicity, diarrhea and emesis”. Also, the “Reduction in WBC at D5 (%)” value in data set [2] (dog, i.v. infusion, 10 mg/kg) is given as −44%; in [2] (dog, i.v. infusion, 20 mg/kg) it was −57%; in [2] (dog, i.v. infusion, 40 mg/kg), −69%; in [2] (dog, i.v. infusion, 50 mg/kg), −53%; in [2] (dog, i.v. infusion, 70 mg/kg), −94%. Besides, the “Toxic signs Day 1” value is “None” in data set [2] (dog, i.v. infusion, 10 mg/kg); “None” in [2] (dog, i.v. infusion, 20 mg/kg); “None” in data set [2] (dog, i.v. infusion, 40 mg/kg); “None” in [2] (dog, i.v. infusion, 50 mg/kg); “Vomit” in data set [2] (dog, i.v. infusion, 70 mg/kg). Also, the “Toxic signs Following Days” value in [2] (dog, i.v. infusion, 10 mg/kg) is “None”; in data set [2] (dog, i.v. infusion, 20 mg/kg), “None”; in [2] (dog, i.v. infusion, 40 mg/kg), “None”; in data set [2] (dog, i.v. infusion, 50 mg/kg) it was “None”; in data set [2] (dog, i.v. infusion, 70 mg/kg) it was “Liquid feces D4”. For the same molecule, in data set [2] (dog, in vivo, iv), the MTD lay within 50 to 70 mg/kg. Besides, the “clinical signs” value in data set [2] (dogs, 10, 20, 40 and 50 mg/kg) is reported as “no clinical signs”. In addition, the half-life is less than 3 min in [3] (time to 50% by mole free SN38 released, read-out: Half life time, Mouse plasma); 8 min in data set [3] (monkey); 3 min in [3] (rat); 6 to 7 min in [4] (DPV1047-linker-SN38, 2.55 μM, citrated plasma, read-out: Half life time, Human plasma); 36 min in [5] (DPV1047-linker-SN38, 2.55 μM, citrated plasma, read-out: Half life time, Dog plasma).
`CC[C@H](C)[C@H](NC(=O)[C@H](CCCCN)NC(=O)[C@@H](NC(=O)[C@H](CCC(N)=O)NC(=O)[C@H](CCCNC(=N)N)NC(=O)[C@@H](N)CSC1CC(=O)N(CCC(=O)Oc2ccc3nc4c(cc3c2)Cn2c-4cc3c(c2=O)COC(=O)[C@]3(O)CC)C1=O)[C@@H](C)CC)C(=O)N[C@@H](Cc1c[nH]c2ccccc12)C(=O)N[C@@H](Cc1ccccc1)C(=O)N[C@@H](CCC(N)=O)C(=O)N[C@@H](CC(N)=O)C(=O)N[C@@H](CCCNC(=N)N)C(=O)N[C@@H](CCCNC(=N)N)C(=O)N[C@@H](CCSC)C(=O)N[C@@H](CCCCN)C(=O)N[C@@H](Cc1c[nH]c2ccccc12)C(=O)N[C@@H](CCCCN)C(=O)N[C@@H](CCCCN)C(=O)O` (stereo partly shown) [reference compound]: the “half life time (stability) in human serum” value in data set [6] is given as “less than three”. The values for the half-life in data set [4] (setting [10]) and in data set [5] (setting [11]) were less than 3 min and 6 min, respectively.
Consider `CC[C@@]1(O)C(=O)OCc2c1cc1n(c2=O)Cc2cc3cc(OC(=O)[C@H]4CC[C@H](CNC(=O)C5CCC(CN6C(=O)CC(SC[C@H](N)C(=O)N[C@H](C(=O)N[C@@H](CCCCN)C(=O)N[C@@H](CCCNC(=N)N)C(=O)NCC(=O)N[C@@H](CC(C)C)C(=O)N[C@@H](CCCCN)C(=O)N[C@@H](CC(C)C)C(=O)N[C@@H](CCCNC(=N)N)C(=O)N[C@@H](Cc7c[nH]cn7)C(=O)N[C@H](C(=O)N[C@@H](CCCNC(=N)N)C(=O)N7CCC[C@H]7C(=O)N[C@@H](CCCNC(=N)N)C(=O)N[C@H](C(=O)N[C@H](C(=O)N[C@@H](CCCNC(=N)N)C(=O)N[C@@H](CCSC)C(=O)N[C@@H](CC(=O)O)C(=O)N[C@H](C(=O)O)C(C)C)[C@@H](C)O)C(C)C)C(C)C)C(C)C)C6=O)CC5)CC4)ccc3nc2-1` (stereo partly shown) [DPV1047-linker #5-10 Hydroxycamptothecin] (H-C(X4)VKRGLKLRHVRPRVTRMDV-OH; N-terminus and C-terminus assumed), for which the IC50 in data set [7] (48 h) worked out at 185 nM; in [8] (48 h), 112 nM. Moreover, the half-life in data set [4] (setting [10]) stood at 214 min; in data set [5] (setting [11]), 180 min.
Consider `CCc1c2c(nc3ccc(O)cc13)-c1cc3c(c(=O)n1C2)COC(=O)[C@]3(O)CC` [SN38, 7-ethyl-10-hydroxy-camptothecin, reference compound], for which, in [9], the “fold more active than irinotecan as an anti-proliferative agent” value is given as “at least 2000 fold”. The IC50 came out at 7 nM in [7] (Table 11, 48-h continuous exposure, mean of three independent experiments, read-out: Drug concentration that inhibits 50% of cell viability (IC50), HCT 116) and 22 nM in data set [8] (Table 11, 48-h continuous exposure, mean of three independent experiments, read-out: Drug concentration that inhibits 50% of cell viability (IC50), NCI-H460). Besides, the solubility in water in “Solubility in water” is no more than 5 µg/mL.

The record behind these values is patent US8410045B2, “Camptothecin-peptide conjugates and pharmaceutical compositions containing the same” (Drais Pharmaceuticals, Inc., priority 2006, dated 2013).
